According to patent US20250326867A1, “De novo designed chlorophyll special pair proteins” (University of Washington, priority 2024, published 2025):

T1: O32-15B
T1 construct: Homotrimeric component of the O32-15 octahedral nanocage (8 trimers per cage); also called C3 trimer; trimeric component
T1 chain: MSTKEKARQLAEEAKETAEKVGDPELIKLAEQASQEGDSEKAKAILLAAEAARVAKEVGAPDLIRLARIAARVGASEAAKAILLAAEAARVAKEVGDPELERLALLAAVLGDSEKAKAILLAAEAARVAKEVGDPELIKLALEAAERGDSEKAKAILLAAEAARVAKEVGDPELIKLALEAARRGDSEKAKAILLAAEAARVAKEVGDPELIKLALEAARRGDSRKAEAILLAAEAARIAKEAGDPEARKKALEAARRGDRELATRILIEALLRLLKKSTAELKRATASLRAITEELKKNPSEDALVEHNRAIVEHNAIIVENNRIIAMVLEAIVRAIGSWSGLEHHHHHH

B1: O32-15A (designed binder)
chain: MDEEFKFLATEAKMLITAAERLAGTDPRLQEMVALIKKELEQAERTFRNGDKSEAQRQLEFVLTAARAVMNVAAAANAAGTDPLLKAMVDAILWRLKEAIRTFQNGDEEAETQLRFVLRAAIAVAVVAAALVLAGTDPELQEMVEQIKDLLISAFMAGEKALTQLLFVAWAAHAVAMIAAAANLAGPRLQQQVKEILEKLKEAIETFQKGDEEQAFRQLAEVLAEAALVALRAALTNLEHHHHHH
notes: Homodimeric component of the O32-15 octahedral nanocage (12 dimers per cage); also called C2 dimer (based on SP2); chlorophyll dimer component
B2: SP3: de novo designed chlorophyll special pair protein, C2 homodimer (protein)
chain: SGSSEELARESAEAAWRLAQAGTRLMLAWIRGDLKEIAEALIELARAVQELARVAKEYGNDELAKTAALLAAHVAMLAILVLIRAIKEGDDEVRELAKTAIKLASTAAKIVLDALPTAEEVRQITLLAKLAEEAADKKNEDSALAVGIAAAAVLLALLALEAAQKAGIEEAEKGARLLLKLAMDAARKKNPEEALAVFNAALDVSIALKLLQSAKRAGSEETRKLAEEMLRQALERARK
modifications: homodimer; VARIANT 1..4 optionally absent
notes: de novo designed chlorophyll special pair protein, C2 homodimer
B3: SP2: de novo designed chlorophyll special pair protein, C2 homodimer (protein)
chain: SGSGSSDEEFKFLATEAKMLITAAERLAGTDPELQEMVALIKKELEQAERTFRNGDKSEAQRQLEFVLTAARAVMNVAAAANAAGTDPELIEMVLRILKQLKEAIRTFQNGDQEEAETQLRFVLRAAIAVAVVAAALVLAGTDPELQEMVKQILEELKQAIETFARGDKEKALTQLLFVAWAAHAVAMIAAAANLAGTDPRLQQQVKEILEKLKEAIETFQKGDEEQAFRQLAEVLAEAALVALRAALTN
modifications: homodimer; VARIANT 1..6 optionally absent; VARIANT 33 optionally absent; VARIANT 89..100 optionally absent; VARIANT 111..115 optionally absent; VARIANT 151..169 optionally absent; VARIANT 197..199 optionally absent
notes: as for B2
B4: SP2-ZnPPa: SP2 protein with bound Zn pheophorbide a (ZnPPa), energy transfer acceptor (protein)
chain: B3 chain

Legend:
[1] = molecular target: T1, O32-15B; test: negative-stain EM of two-component octahedral nanocage
Experimental: Transmission negative-stain electron microscopy (nsEM) and image processing: SEC purified cage fractions were diluted to about 0.5 μM (monomeric component concentration) for negative-stain EM characterization. Briefly, on a glow-discharged formvar/carbon supported 400-mesh copper grid (Ted Pella, Inc.), 6 μL of protein sample were drop-casted for 2 mins. The grid was blotted and stained with 3 μL of 2% uranyl formate, blotted again, and stained with 3 μL of uranyl formate for 20 s before final blotting. Micrographs of stained samples were taken on a 120 kV Talos™ L120C transmission electron microscope. All nsEM datasets were collected using the EPU software and processed by CryoSparc™ (Punjani et al. 2017) with contrast transfer function (CTF) correction. All the particle picks were 2D classified for 20 iterations into 50 classes. Particles from selected classes were used for building the ab-initio initial model. The initial model was homogeneously refined using C₁ and the corresponding O symmetry.

[2] = ZnPPaM binding titration monitored by CD in the Qy region; conditions: curve fitting
Text: (§1) At longer wavelengths in the UV/visible/near-infrared (UV/vis/NIR), CD spectra can serve as a convenient probe of excitonic interactions between Chls. […] When Chl dimers are arranged in chiral protein environments, however, excitonic interactions can produce delocalized transitions with chiral character, yielding CD signals that are stronger and conservative (i.e., composed of a bisignate doublet that integrates to zero). […] Curve fitting of the CD titrations yields SP2-ZnPPaM dissociation constants (KDs) of 300 nM for KD1 and 2.5 μM for KD2, and SP3-ZnPPaM KDs of 800 nM for KD1 and 1.0 μM for KD2 (data not shown). Due to the lower CD signal of the SP1-ZnPPaM complex, we instead used absorbance and fluorescence to measure the SP1-ZnPPaM interaction. Absorption titrations yielded curve fits with KD1 and KD2 values of 290 nM and 430 nM for SP1, 110 nM and 2.0 μM for SP2, and 350 nM and 940 nM for SP3, respectively (FIG. 9).
Circular Dichroism (CD) spectroscopy: CD spectra were collected using a J-1500 spectrophotometer. For protein secondary structure assays, spectra were measured on samples of 0.2-0.4 mg/mL protein in 1 mm quartz cuvettes from 260 to 190 nm with a 1 nm bandwidth, 1 nm data interval, data integration time (DIT) of 1 second, and scanning speed of 50 nm/min. Thermal melts were monitored at 222 nm from 2 to 98° C. with a 2 nm bandwidth and 8 second DIT. UV/vis/near-infrared (NIR) CD transitions of protein-bound Chls were examined in the 800-300 nm region in 1 cm quartz cuvettes as averages of 10 scans using a 3 nm bandwidth, 1 nm data interval, DIT of 4 seconds, and scanning speed of 50 nm/min unless otherwise noted. UV/vis/NIR CD spectra shown in FIG. 2 were collected after sterile filtering with 0.22 μm filter and PD-10 desalting column purification (Sephadex™ G-25 M resin, Cytiva Life Sciences). Each spectrum represents the average of two independent sample preparations. Samples contained 8-15 μM protein (monomer concentration) with equimolar ZnPPaM, 150 mM NaCl, and 10 mM Tris buffer at pH 8. ZnPPaM dry powder was dissolved in methanol stock solutions immediately before adding to protein solutions. Samples were allowed to incubate for 8-16 hours at room temperature prior to measuring spectra.

[3] = ZnPPaM binding titration monitored by UV/vis absorbance; conditions: absorption titration
Experimental: FIG. 9. SP2-ZnPPaM binding titration monitored by UV/vis absorbance. (a) UV/vis titration of ZnPPaM into a solution of 20 μM SP2 dimer ([…] of SP2 monomer) in 150 mM NaCl, and 10 mM Tris at pH 8. Samples were prepared separately with 0.25 to 4 equivalents (eq.) of ZnPPaM per SP2 protein dimer (2.0 eq. ZnPPaM would be a stoichiometric amount). The y-axis is the molar extinction coefficient, &, or OD divided by ZnPPaM concentration. ZnPPaM was added to protein samples from a DMSO stock solution. Samples were incubated overnight for 20 hours at 4° C. before measurement at room temperature. (b) The same data as in panel (a) zoomed in on the Qy region. Arrows indicate the direction & changes as a function of increasing ZnPPaM concentration. (c) Fitted spectra and (d) species concentration vs. molar ratio of ligand to protein from fitting of the absorbance spectra in panels (a) and (b). During fitting, only the P+L→PL and PL+L→PL2 reactions were considered, and ZnPPaM aggregation was disregarded. (P represents SP2 dimer protein and L represents ZnPPaM ligand). Curve fitting gives dissociation constants (KDs) of 110 nM and 2.0 μM for KD1 and KD2, respectively. Fittings were performed with an algorithm that combines singular value decomposition and least squares regression, as implemented in ReactLab™ Equilibria. (e) Full spectra and (f) the Qy region of a second titration with SP2 dimer protein concentration held at 2.0 μM. At 2.0 μM protein, the intensities of the spectral features at 669 and 692 nm depend upon the molar ratio of protein to ZnPPaM in a manner similar to the 20 μM protein titration shown in panels (a) and (b).
as §1
Protein-chlorophyll sample preparation: Zn pheophorbide a methyl ester (ZnPPaM) was purchased from Frontier Scientific, Inc. ZnPPaM stock solutions were prepared in dimethyl sulfoxide (DMSO) or methanol to concentrations between 200 μM and 1 mM. ZnPPaM concentrations were determined using mass measurements and by using the known absorptivity of Zn pheophytin a, which has a similar absorbance spectrum and an extinction coefficient €659 nm of 77,300 M^−1 cm^−1 in 80% acetone/20% deionized water (Jones et al. 1976). Ultraviolet/visible (UV/vis) absorbance spectra were collected using a V-750 spectrophotometer with a 1 nm bandwidth and 400 nm/min scanning speed. Protein-ZnPPaM complexes were prepared by slowly adding freshly-prepared ZnPPaM stock solution to protein solution in aqueous buffer at room temperature and incubating samples for several hours. Unbound ZnPPaM was removed by centrifugation to pellet precipitated ZnPPaM, sterile filtration using a 0.22 μm syringe filter, and/or running a PD-10 desalting column purification (Sephadex™ G-25 M resin, Cytiva Life Sciences).

[4] = ZnPPaM fluorescence titration, 1:1 binding model; conditions: 1:1 binding model of protein monomer to ZnPPaM, approximates average of KD1 and KD2, read-out: KD estimate
Text: as §1

[5] = molecular target: T2, CpcA-PEB (Synechocystis sp., UniProt Q54715); test: Excitation energy transfer in 2D surface arrays by FLIM / time-resolved single photon counting; conditions: 485 nm laser
T2 construct: made in house; host or cells: E. coli
Text: Native special pairs play a critical role as energy transfer acceptors for antenna proteins. To test whether our designed SP proteins participate in energy transfer with natural light-harvesting proteins, we analyzed excitation energy transfer in 2D surface arrays using Fluorescence Lifetime Imaging Microscopy (FLIM) in combination with nanoimprint lithography (Huang, Vasilev, and Hunter 2020) (FIG. 5). We selected the cyanobacterial antenna protein CpcA with attached phycoerythrobilin (PEB) as the energy transfer donor. CpcA-PEB was purified from E. coli, and gives a strong fluorescence emission maximum at 568 nm and emission extending past 630 nm (Barnett et al. 2017), overlapping with the excitation spectrum of Zn pheophorbide a (ZnPPa) when bound to SP2. […]
To quantify the strength of the interaction between CpcA-PEB and SP2-ZnPPa, we used time-resolved single photon counting. The surface was illuminated with a 485 nm picosecond laser filtered at 620 nm (donor emission), and photons were counted for individual pixels (surface resolution approximately 300 nm) over time, allowing both total fluorescence intensity and lifetime to be analyzed (FIG. 5d). In regions with only CpcA-PEB, fluorescence intensity was above 4000 arbitrary units (a.u.) and the lifetime was over 2 ns (τav=2058 ps). […]

[6] = first ZnPPaM binding (data not shown), read-out: dissociation constant KD1
[7] = second ZnPPaM binding (data not shown), read-out: dissociation constant KD2
[8] = P+L→PL, 150 mM NaCl, 10 mM Tris pH 8, read-out: dissociation constant KD1

T2 sequence (Q54715 whole entry): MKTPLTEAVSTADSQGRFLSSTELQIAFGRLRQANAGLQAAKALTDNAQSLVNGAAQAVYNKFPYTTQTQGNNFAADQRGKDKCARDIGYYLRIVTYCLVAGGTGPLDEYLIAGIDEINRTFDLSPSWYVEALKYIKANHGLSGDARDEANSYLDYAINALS

Row | Molecule | binding result [1] | Kd [2, 6] | Kd [2, 7] | Kd [3, 8] | Kd ([3]; PL+L→PL2, read-out: dissociation constant KD2) | Kd [4] | Kd ([3]; PL+L→PL2, 150 mM NaCl, 10 mM Tris pH 8, read-out: dissociation constant KD2) | energy transfer efficiency of CpcA-PEB to SP2-ZnPPa ([5]; 2D arrays on poly-L-lysine glass, 620 nm filter) | donor fluorescence lifetime τav ([5]; regions with both CpcA-PEB and SP2-ZnPPa, 620 nm donor emission (CpcA-PEB only: 2058 ps))
1 | B1 | binds | – | – | – | – | – | – | – | –
2 | B2 | – | 800 nM | 1000 nM | 350 nM | 940 nM | 120 nM | – | – | –
3 | B3 | – | 300 nM | 2500 nM | 110 nM | – | 480 nM | 2000 nM | – | –
4 | B4 | – | – | – | – | – | – | – | 59% | 839 ps
